From patent US20090305982A1 come the findings set out here.

The target in assay [1] is human IL-4 receptor alpha on cells (peripheral blood lymphocytes, primary B cells, TF-1, A549, PBMC) (human) (UniProt P24394). The assay can be described thus: cell-based or functional assay.
Assay [2] deals with cynomolgus IL-4 receptor alpha on peripheral blood lymphocytes (cynomolgus). The assay can be described thus: flow cytometry, cynomolgus peripheral blood lymphocytes, 10 µg/ml.
The target of assay [3] is human IL-4 receptor alpha on cells (peripheral blood lymphocytes, primary B cells, TF-1, A549, PBMC) (human) (UniProt P24394). Briefly: flow cytometry, human peripheral blood lymphocytes, 10 µg/ml.

As to “wildtype tear lipocalin (gene product of pTLPC10) (from UniProt P31025 23-175)”, in assay [1], the % Positive for STAT-6 phosphorylation, TF-1 cells + IL-4 is 72%; the % Positive for STAT-6 phosphorylation, TF-1 cells + IL-13 came out at 84%; the MFI, STAT-6 phosphorylation, TF-1 cells + IL-4 was 13.1; the MFI, STAT-6 phosphorylation, TF-1 cells + IL-13 was 18.6. Also, in assay [2], the % Positive amounted to 5% and the MFI amounted to 1.9. In assay [3], this substance had a % Positive of 9% and an MFI of 3.2.
